The test deals with extracellular domain of Toll-like receptor 4 (TLR4) (UniProt O00206 24-631). Put plainly: ITC. (ITC needs no label: the signal is the heat of the interaction.)
extracellular domain of Toll-like receptor 4 (TLR4), sequence (O00206 24-631): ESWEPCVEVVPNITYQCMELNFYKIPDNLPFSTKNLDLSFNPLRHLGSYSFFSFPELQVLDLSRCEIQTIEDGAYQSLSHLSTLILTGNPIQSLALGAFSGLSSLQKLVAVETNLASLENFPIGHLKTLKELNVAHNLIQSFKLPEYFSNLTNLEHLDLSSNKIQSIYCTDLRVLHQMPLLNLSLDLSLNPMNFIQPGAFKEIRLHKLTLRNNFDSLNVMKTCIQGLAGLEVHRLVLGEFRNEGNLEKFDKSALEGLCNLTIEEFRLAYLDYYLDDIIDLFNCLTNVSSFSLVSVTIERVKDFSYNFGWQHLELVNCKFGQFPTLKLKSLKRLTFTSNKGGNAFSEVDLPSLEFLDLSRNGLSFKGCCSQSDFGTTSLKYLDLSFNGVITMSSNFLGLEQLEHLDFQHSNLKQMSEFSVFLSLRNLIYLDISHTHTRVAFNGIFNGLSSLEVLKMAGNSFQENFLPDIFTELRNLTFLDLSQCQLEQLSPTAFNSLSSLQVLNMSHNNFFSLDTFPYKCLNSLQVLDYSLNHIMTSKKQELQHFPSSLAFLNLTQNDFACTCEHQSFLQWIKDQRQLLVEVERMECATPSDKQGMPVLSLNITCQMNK

B1: Cold-inducible RNA binding protein (CIRP) (natural protein, UniProt Q14011 1-172, looked up)
chain: MASDEGKLFVGGLSFDTNEQSLEQVFSKYGQISEVVVVKDRETQRSRGFGFVTFENIDDAKDAMMAMNGKSVDGRQIRVDQAGKSSDNRSRGYRGGSAGGRGFFRGGRGRGRGFSRGGGDRGYGGNRFESRSGGYGGSRDYYSSRSQSGGYSDRSSGGSYRDSYDSYATHNE
modifications: 15N-labeled (in the NMR titration)
Consider B1, for which the Kd came out at 3.72 ± 1.98 µM.

Broadly, the Kd is the free concentration of one partner at which half of the binding sites on the other are occupied at equilibrium, for simple one-to-one binding. A high value points to weaker binding.

These data come from publication PMC10285643 (iScience, 2023).
